Here are results for 1 substance from publication doi:10.1101/2022.07.21.500812.

Test [1] addresses hGPC3^core(R355A/R358A) (human) (UniProt P51654). Put plainly: native MS.
Test [2] concerns the target rattus norvegicus Unc5D residues 32-307 (rUnc5D^IgIgTSP) (rattus norvegicus) (UniProt F1LW30). Briefly: crystal structure.

Chain of hGPC3^core(R355A/R358A) (human) (P51654 32-483 R355A/R358A): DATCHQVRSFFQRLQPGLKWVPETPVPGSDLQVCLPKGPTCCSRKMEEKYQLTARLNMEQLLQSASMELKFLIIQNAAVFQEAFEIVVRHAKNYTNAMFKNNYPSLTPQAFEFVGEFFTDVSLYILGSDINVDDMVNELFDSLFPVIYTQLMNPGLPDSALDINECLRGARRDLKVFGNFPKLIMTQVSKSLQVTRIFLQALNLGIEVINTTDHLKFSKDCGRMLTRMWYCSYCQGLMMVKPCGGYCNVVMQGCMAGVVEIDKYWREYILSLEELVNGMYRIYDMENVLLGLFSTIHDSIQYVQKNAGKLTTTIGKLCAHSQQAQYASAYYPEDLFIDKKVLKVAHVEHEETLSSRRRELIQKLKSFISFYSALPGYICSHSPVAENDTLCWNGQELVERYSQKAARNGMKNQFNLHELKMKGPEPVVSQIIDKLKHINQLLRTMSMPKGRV

In test [1], “rattus norvegicus Unc5D residues 32-307 (rUnc5D^IgIgTSP) (from UniProt F1LW30 32-307) (domain or fragment)” gave a stoichiometry N (Unc5D per GPC3 (1:1)) of 1, a stoichiometry N (Unc5D per GPC3 (2:2)) of 1 and a stoichiometry N (Unc5D per GPC3 (4:4)) of 1. In test [2], the stoichiometry N – broadly, the number of molecules, sites or subunits per partner or assembly – is 4.
